Patent publication US20260234276A1 (DOMAIN THERAPEUTICS, published 2026)
Values joined by “and” are separate entries in the source; they are usually repeats but may differ in a detail not shown here. Equal entries are not always repeated.

B1: 3-90 (antibody)
heavy: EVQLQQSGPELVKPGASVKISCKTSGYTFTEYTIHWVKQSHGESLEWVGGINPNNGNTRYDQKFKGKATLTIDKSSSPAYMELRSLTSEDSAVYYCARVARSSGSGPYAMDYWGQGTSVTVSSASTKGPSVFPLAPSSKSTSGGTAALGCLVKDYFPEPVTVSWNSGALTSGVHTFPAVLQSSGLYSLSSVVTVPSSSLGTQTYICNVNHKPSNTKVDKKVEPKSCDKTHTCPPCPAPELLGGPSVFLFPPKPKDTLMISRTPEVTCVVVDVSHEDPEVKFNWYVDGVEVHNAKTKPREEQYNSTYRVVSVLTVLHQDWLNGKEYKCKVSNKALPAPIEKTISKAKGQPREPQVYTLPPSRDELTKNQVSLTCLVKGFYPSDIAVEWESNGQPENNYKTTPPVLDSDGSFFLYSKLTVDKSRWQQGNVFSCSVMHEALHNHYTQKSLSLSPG
light: DVVMTQTPLSLPVSLGDQASISCRCTQSLLHTNGDTYLHWYLQKPGQSPKLLIYKVSNRFSGVPDRFSGSGSGTDFTLKISRVEAEDLGVYFCSQSTHVPYTFGGGTKLEIKRTVAAPSVFIFPPSDEQLKSGTASVVCLLNNFYPREAKVQWKVDNALQSGNSQESVTEQDSKDSTYSLSSTLTLSKADYEKHKVYACEVTHQGLSSPVTKSFNRGEC
B2: 3-91 (antibody)
heavy: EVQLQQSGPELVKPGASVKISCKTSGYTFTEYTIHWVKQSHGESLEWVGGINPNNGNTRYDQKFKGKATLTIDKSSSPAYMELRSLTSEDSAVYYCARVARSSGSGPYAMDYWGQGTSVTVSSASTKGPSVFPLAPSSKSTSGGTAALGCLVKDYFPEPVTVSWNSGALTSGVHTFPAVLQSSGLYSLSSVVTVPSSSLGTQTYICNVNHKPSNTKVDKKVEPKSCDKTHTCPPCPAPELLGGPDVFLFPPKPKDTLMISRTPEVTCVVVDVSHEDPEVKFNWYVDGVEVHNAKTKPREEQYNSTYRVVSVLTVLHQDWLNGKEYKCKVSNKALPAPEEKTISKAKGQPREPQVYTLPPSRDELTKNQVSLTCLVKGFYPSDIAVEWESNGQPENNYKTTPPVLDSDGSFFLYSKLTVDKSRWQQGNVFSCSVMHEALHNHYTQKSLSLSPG
light: B1 light
B3: 3-92 (antibody)
heavy: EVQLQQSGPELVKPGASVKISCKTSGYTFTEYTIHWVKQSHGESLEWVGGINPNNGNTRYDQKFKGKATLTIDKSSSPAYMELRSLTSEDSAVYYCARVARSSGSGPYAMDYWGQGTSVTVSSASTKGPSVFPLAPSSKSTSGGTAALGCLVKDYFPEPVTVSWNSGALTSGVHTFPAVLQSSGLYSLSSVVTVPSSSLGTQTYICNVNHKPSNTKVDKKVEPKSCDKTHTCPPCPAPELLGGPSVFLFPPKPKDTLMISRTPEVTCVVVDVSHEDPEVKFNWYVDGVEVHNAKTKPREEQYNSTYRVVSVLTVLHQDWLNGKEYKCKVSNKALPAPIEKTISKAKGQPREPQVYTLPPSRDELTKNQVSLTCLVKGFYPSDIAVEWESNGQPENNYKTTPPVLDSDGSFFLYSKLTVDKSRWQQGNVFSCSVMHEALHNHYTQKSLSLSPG
light: B1 light
B4: 3-102 (antibody)
heavy: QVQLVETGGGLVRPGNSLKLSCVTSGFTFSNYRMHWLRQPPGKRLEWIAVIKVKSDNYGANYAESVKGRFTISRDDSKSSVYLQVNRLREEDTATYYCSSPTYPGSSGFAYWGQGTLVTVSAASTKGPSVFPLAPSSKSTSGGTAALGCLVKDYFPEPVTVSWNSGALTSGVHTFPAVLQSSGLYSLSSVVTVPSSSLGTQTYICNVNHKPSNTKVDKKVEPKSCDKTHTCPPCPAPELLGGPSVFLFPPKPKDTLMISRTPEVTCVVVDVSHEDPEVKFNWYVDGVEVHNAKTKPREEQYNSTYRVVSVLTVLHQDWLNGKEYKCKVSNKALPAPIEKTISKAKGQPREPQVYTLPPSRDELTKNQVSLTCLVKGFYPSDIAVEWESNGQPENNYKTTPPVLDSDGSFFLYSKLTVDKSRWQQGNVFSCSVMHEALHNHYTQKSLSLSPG
light: DIQMTQTTSSLSASLGDRVTISCRASQDISNYLNWYQQKPDGTVKLLIYYTSRLHSGVPSRFSGSGSGTDYSLTISNLEQEDIATYFCQQGNKFPPTFGGGTKLEINRTVAAPSVFIFPPSDEQLKSGTASVVCLLNNFYPREAKVQWKVDNALQSGNSQESVTEQDSKDSTYSLSSTLTLSKADYEKHKVYACEVTHQGLSSPVTKSFNRGEC
B5: 3-105 (antibody)
heavy: QVQLVETGGGLVRPGNSLKLSCVTSGFTFSNYRMHWLRQPPGKRLEWIAVIKVKSDNYGANYAESVKGRFTISRDDSKSSVYLQVNRLREEDTATYYCSSPTYPGSSGFAYWGQGTLVTVSAASTKGPSVFPLAPSSKSTSGGTAALGCLVKDYFPEPVTVSWNSGALTSGVHTFPAVLQSSGLYSLSSVVTVPSSSLGTQTYICNVNHKPSNTKVDKKVEPKSCDKTHTCPPCPAPELLGGPDVFLFPPKPKDTLMISRTPEVTCVVVDVSHEDPEVKFNWYVDGVEVHNAKTKPREEQYNSTYRVVSVLTVLHQDWLNGKEYKCKVSNKALPLPEEKTISKAKGQPREPQVYTLPPSRDELTKNQVSLTCLVKGFYPSDIAVEWESNGQPENNYKTTPPVLDSDGSFFLYSKLTVDKSRWQQGNVFSCSVMHEALHNHYTQKSLSLSPG
light: B4 light
B6: 3-29 (antibody, V domains shown)
VH: QVHLVETGGGLVRPGNSLKLSCVTSGFTLSNYRMHWLRQPPGKRLEWIAVIKVKSDNYGANYAESVKGRFTISRDDAKSSVYLQMNRLREEDTATYYCSRPDGFSPFVYWGQGTLVTVSA
VL: DIKMTQSPSSMYASLGERVTITCKASQDINSYLSWFQQKPGKSPKTLIYRANRLVDGVPSRFSGSGSGQDYFLTISSLEYEDMGIYYCLQYGEFPPTFGAGTKLELK
B7: 3-30 (antibody, V domains shown)
VH: EVQLVESGGGLVQPKGSLRLSCAASGFTFNAYAMNWVRQAPGKGLEWVARIRSKSNNYATYYGDSVKDRFTISRDDSQTMLYLQMNNLKTEDTAMYYCVRGREAYYRYDGDYYAMDYWGQGTSVTVSS
VL: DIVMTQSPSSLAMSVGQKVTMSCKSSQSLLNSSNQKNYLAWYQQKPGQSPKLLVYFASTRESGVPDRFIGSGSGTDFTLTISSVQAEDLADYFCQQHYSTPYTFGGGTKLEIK
B8: 3-45 (antibody, V domains shown)
VH: EVQLVETGGGLVQPKGSLKLSCAASGFTFNANAMNWVRQAPGKGLEWVARIRSKSNNYATYYADSVKDRFTISRDDSQSMLYLQMNNLKTEDTAMYYCVRGSDNYIFYAMDYWGQGTSVTVSS
VL: DIVMTQAAPSVPVTPGESVSISCRSSKSLLHSNGNTYLYWFLQRPGQSPQLLIYRMSNLASGVPDRFSGSGSGTAFTLRISRVEAEDVGVYYCMQHLEYPFTFGGGTKLEIK
B9: 3-48 (antibody, V domains shown)
VH: QVQLVETGGGLVRPGNSLKLSCVTSGFTFSNYRMHWLRQPPGKRLEWIAVIKVKSDNYGANYAESVKGRFTISRDDSKSSVYLQVNRLREEDTATYYCSSPTYPGSSGFAYWGQGTLVTVSA
VL: DIQMTQTTSSLSASLGDRVTISCRASQDISNYLNWYQQKPDGTVKLLIYYTSRLHSGVPSRFSGSGSGTDYSLTISNLEQEDIATYFCQQGNKFPPTFGGGTKLEIN
B10: 3-49 (antibody, V domains shown)
VH: EVQLQQSGPELVKPGASVKISCKTSGYTFTEYTMHWVKQSHGKSLEWIGGINPNNGDTNYNQKFMGKATLTVDKSSSTAYMELRSLTSEDSAVYYCVRRLLRRGAMDYWGQGTSVTVSS
VL: DIVLTQSPASLAVSLGQRATISCRASENVEYYGTSLMQWFQQKPGQPPKLLIYAASNVDSGVPARFSGSGSGTDFSLNIHPVEEDDIAMYFCQQSRKVPWTFGGGTKLDIK

These binders were tested against T1, human CCR8 (human, UniProt P51685 1-355) (assay: cell-based or functional assay).
For B1, the “ADCC % Max lysis, NK cells Donor 3” value was 14%, the “ADCC % Max lysis, NK cells Donor 4” value was 15% and the “ADCC EC50, NK cells Donor 3” value was 0.793 nM. For the same binder, the “ADCC EC50, NK cells Donor 4” value was 1.52 nM. With B2 the “ADCC % Max lysis, NK cells Donor 3” value was 25%, the “ADCC % Max lysis, NK cells Donor 4” value was 28% and the “ADCC EC50, NK cells Donor 3” value was 0.218 nM. The “ADCC EC50, NK cells Donor 4” value was 0.053 nM. With B3 the “ADCC % Max lysis, NK cells Donor 3” value was 29%, the “ADCC % Max lysis, NK cells Donor 4” value was 29% and the “ADCC EC50, NK cells Donor 3” value was 0.195 nM. For the same binder, the “ADCC EC50, NK cells Donor 4” value was 0.282 nM. With B4 the “ADCC % Max lysis, NK cells Donor 3” value was 16%, the “ADCC % Max lysis, NK cells Donor 4” value was 18% and the “ADCC EC50, NK cells Donor 3” value was 0.291 nM. The “ADCC EC50, NK cells Donor 4” value was 0.406 nM. For B5, the “ADCC % Max lysis, NK cells Donor 3” value was 25%, the “ADCC % Max lysis, NK cells Donor 4” value was 30% and the “ADCC EC50, NK cells Donor 3” value was 0.00822 nM. The “ADCC EC50, NK cells Donor 4” value was 0.0489 nM.

Target: T1, human CCR8
Experiment: cell-based or functional assay
Remark: another data set of the same source
B6 was tested, and the “hCCL1 (100 nM) residual response, Protocol #2, mAb 0.08 µg/mL” value was 73%, the “hCCL1 (100 nM) residual response, Protocol #2, mAb 0.4 µg/mL” value was 51% and the “hCCL1 (100 nM) residual response, Protocol #2, mAb 10 µg/mL” value was 24%. The “hCCL1 (100 nM) residual response, Protocol #3, mAb 0.05 µg/mL” value was 69%, the “hCCL1 (100 nM) residual response, Protocol #3, mAb 0.5 µg/mL” value was 38% and the “hCCL1 (100 nM) residual response, Protocol #3, mAb 5 µg/mL” value was 30%. B7 was tested, and the “hCCL1 (100 nM) residual response, Protocol #2, mAb 0.08 µg/mL” value was 70%, the “hCCL1 (100 nM) residual response, Protocol #2, mAb 0.4 µg/mL” value was 44% and the “hCCL1 (100 nM) residual response, Protocol #2, mAb 10 µg/mL” value was 51%. The “hCCL1 (100 nM) residual response, Protocol #3, mAb 0.05 µg/mL” value was 78%, the “hCCL1 (100 nM) residual response, Protocol #3, mAb 0.5 µg/mL” value was 55% and the “hCCL1 (100 nM) residual response, Protocol #3, mAb 5 µg/mL” value was 43%. In the case of B8, the “hCCL1 (100 nM) residual response, Protocol #2, mAb 0.08 µg/mL” value is reported as 99%, the “hCCL1 (100 nM) residual response, Protocol #2, mAb 0.4 µg/mL” value is reported as 85% and the “hCCL1 (100 nM) residual response, Protocol #2, mAb 10 µg/mL” value is reported as 68%. The “hCCL1 (100 nM) residual response, Protocol #3, mAb 0.05 µg/mL” value was 86%, the “hCCL1 (100 nM) residual response, Protocol #3, mAb 0.5 µg/mL” value was 75% and the “hCCL1 (100 nM) residual response, Protocol #3, mAb 5 µg/mL” value was 48%. With B9 the “hCCL1 (100 nM) residual response, Protocol #2, mAb 0.08 µg/mL” value was 93%, the “hCCL1 (100 nM) residual response, Protocol #2, mAb 0.4 µg/mL” value was 89% and the “hCCL1 (100 nM) residual response, Protocol #2, mAb 10 µg/mL” value was 48%. The “hCCL1 (100 nM) residual response, Protocol #3, mAb 0.05 µg/mL” value was 92%, the “hCCL1 (100 nM) residual response, Protocol #3, mAb 0.5 µg/mL” value was 68% and the “hCCL1 (100 nM) residual response, Protocol #3, mAb 5 µg/mL” value was 50%. B10 was tested, and the “hCCL1 (100 nM) residual response, Protocol #2, mAb 0.08 µg/mL” value was 99%, the “hCCL1 (100 nM) residual response, Protocol #2, mAb 0.4 µg/mL” value was 102% and the “hCCL1 (100 nM) residual response, Protocol #2, mAb 10 µg/mL” value was 95%. The “hCCL1 (100 nM) residual response, Protocol #3, mAb 0.05 µg/mL” value was 102%, the “hCCL1 (100 nM) residual response, Protocol #3, mAb 0.5 µg/mL” value was 97% and the “hCCL1 (100 nM) residual response, Protocol #3, mAb 5 µg/mL” value was 67%.

Each binder was assayed against T1, human CCR8 (assay: flow cytometry, hCCR8 transfected CHOK1 cells).
Procedure: Briefly, 1·10⁵ cells per well in a 96 well plate were incubated with a dilution of unconjugated anti-CCR8 mAb at 10 μg/mL then diluted at 1/3.33, 4 dilution points (during 30 min at 4° C.). […] To determine EC50 value, 8 concentrations of anti-CCR8 mAb were tested. Unbound antibodies were washed away with PBS (Invitrogen by Thermofisher Scientific, Illkirch-Graffenstaden, France) supplemented by 2% Fetal Bovine Serum (Invitrogen by Thermofisher Scientific, Illkirch-Graffenstaden, France) and 2 mM EDTA (Invitrogen by Thermofisher Scientific, Illkirch-Graffenstaden, France). Subsequently, cells are centrifuged (5 min at 400 g) and bound antibody is detected with F(ab′)₂-Goat anti-Mouse IgG (H+L) Cross-Adsorbed Secondary Antibody, Alexa Fluor 488 (dilution 1/500) (Invitrogen by Thermofisher Scientific, Illkirch-Graffenstaden, France) or with F(ab′)₂-Goat anti-Human IgG Fc Secondary Antibody, PE (Invitrogen by Thermofisher Scientific, Illkirch-Graffenstaden, France) (dilution 1/1000) at 4° C. for 30 min. Detection reagent is washed away and cells are centrifuged (5 min at 400 g) and resuspended in 30 μL PBS. Bound detection antibody is quantified on a MacsQuant16 (Miltenyi, Gladbach, Germany) (B1 or B2 channel, 5000 events per acquisition).
For B6, the “% positive cells” value was 71.3% and the “MFI fold change to isotype ctrl” value was 6.26 fold. In the case of B7, the “% positive cells” value is reported as 68.5% and the “MFI fold change to isotype ctrl” value is reported as 5.12 fold. For B8, the “% positive cells” value was 67.8% and the “MFI fold change to isotype ctrl” value was 6.11 fold. For B9, the “% positive cells” value was 83% and the “MFI fold change to isotype ctrl” value was 17.6 fold. For B10, the “% positive cells” value was 73.4% and the “MFI fold change to isotype ctrl” value was 6.52 fold.

Target: T1, human CCR8
Experiment: cell-based or functional assay
Remark: another data set of the same source
In the case of B6, the “IC50 (Gi2 BRET, pH 6.5)” value is reported as 0.011 µg/ml and 0.073 nM and the “IC50 (Gi2 BRET, pH 7.4)” value is reported as 0.007 µg/ml and 0.047 nM. B7 was tested, and the “IC50 (Gi2 BRET, pH 6.5)” value was 0.053 µg/ml and 0.355 nM and the “IC50 (Gi2 BRET, pH 7.4)” value was 0.063 µg/ml and 0.421 nM. B8 was tested, and the “IC50 (Gi2 BRET, pH 6.5)” value was 0.031 µg/ml and 0.208 nM and the “IC50 (Gi2 BRET, pH 7.4)” value was 0.017 µg/ml and 0.115 nM. B9 was tested, and the “IC50 (Gi2 BRET, pH 6.5)” value was 0.014 µg/ml and 0.095 nM and the “IC50 (Gi2 BRET, pH 7.4)” value was 0.004 µg/ml and 0.026 nM. With B10 the “IC50 (Gi2 BRET, pH 6.5)” value was 0.036 µg/ml and 0.237 nM and the “IC50 (Gi2 BRET, pH 7.4)” value was 0.006 µg/ml and 0.039 nM.

These binders were tested against pm8 (human, sulfated tyrosines at Y15, Y16 and Y17) (assay: ELISA on coated peptide [cont.]).
Sequence of pm8 (human, sulfated tyrosines at Y15, Y16 and Y17) (peptide, as listed by the source): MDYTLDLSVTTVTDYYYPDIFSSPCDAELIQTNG
Procedure: (§1) The specific binding properties of antibodies were evaluated by ELISA with coated CCR8 related peptides (500 ng/mL) in carbonate/bicarbonate buffer. Different peptides were used as described in Table 1 (see Example 1). Each anti-CCR8 mAb was tested at 1 μg/mL then diluted at 1/10. After an incubation at room temperature during 90 min, unbound mAbs were removed by washings. […] After washings, 3,3′,5,5′-tetramethylbenzidine (TMB) (Interchim, Montlugon, France) was added for 15 min. Then the optical density (OD) was determined by using a multiplate reader (Tecan, Lyon, France) and correlated with mAb reactivity on the panel of coated peptides.
B6: binds. B7: binds. B8: binds. B9: binds. B10: binds.

What follows are binders tested against pm6 (human, sulfated tyrosines at Y16 and Y17) (assay: ELISA on coated peptide [cont.]).
Sequence of pm6 (human, sulfated tyrosines at Y16 and Y17) (peptide, as listed by the source): as above
Procedure: as §1
B6: binds. B7: binds. B8: binds. B9: binds. B10: binds.

Each binder was assayed against pm3 (human, sulfated tyrosine at Y17) (assay: ELISA on coated peptide [cont.]).
Sequence of pm3 (human, sulfated tyrosine at Y17) (peptide, as listed by the source): as above
Procedure: as §1
B6: binds. B7: binds. B8: binds. B9: binds. B10: binds.

The binders below were run against pm5 (human, sulfated tyrosines at Y15 and Y17) (assay: ELISA on coated peptide [cont.]).
Sequence of pm5 (human, sulfated tyrosines at Y15 and Y17) (peptide, as listed by the source): as above
Procedure: as §1
B6: binds. B7: binds. B8: binds. B9: binds. B10: binds.
